± gives the uncertainty stated by the source.
B1: Histone H1t, residues 44 to 112; numbered along this chain, P22492 (parent)
chain: VSKLITEALSVSQERVGMSLVALKKALAAAGYDVEKNNSRIKLSLKSLVNKGILVQTRGTGASGSFKLS

Variants of: B1
Assay: abundance fitness (aPCA) (normalised: wild type 0, dead -1); higher = more abundant; growth selection in yeast, the domain comes from the species named
Settings: Homo sapiens

Variant | abundance fitness
VSKLITNALSVSQERVGMSLVALKKALAAAGYDVEKNNSRIKLSLKSLVNKGILVQTRGTGASGSFKLS [E7N] | -0.118 ± 0.042
VSKLITAALSVSQERVGMSLVALKKALAAAGYDVEKNNSRIKLSLKSLVNKGILVQTRGTGASGSFKLS [E7A] | -0.996 ± 0.26
VSKLITMALSVSQERVGMSLVALKKALAAAGYDVEKNNSRIKLSLKSLVNKGILVQTRGTGASGSFKLS [E7M] | -0.63 ± 0.052
VSKLITYALSVSQERVGMSLVALKKALAAAGYDVEKNNSRIKLSLKSLVNKGILVQTRGTGASGSFKLS [E7Y] | -0.589 ± 0.036
VSKLITCALSVSQERVGMSLVALKKALAAAGYDVEKNNSRIKLSLKSLVNKGILVQTRGTGASGSFKLS [E7C] | -0.493 ± 0.11
VSKLITSALSVSQERVGMSLVALKKALAAAGYDVEKNNSRIKLSLKSLVNKGILVQTRGTGASGSFKLS [E7S] | -0.497 ± 0.095
VSKLITEALLVSQERVGMSLVALKKALAAAGYDVEKNNSRIKLSLKSLVNKGILVQTRGTGASGSFKLS [S10L] | -0.261 ± 0.029
VSKLITEALDVSQERVGMSLVALKKALAAAGYDVEKNNSRIKLSLKSLVNKGILVQTRGTGASGSFKLS [S10D] | -0.029 ± 0.087
VSKLITEALMVSQERVGMSLVALKKALAAAGYDVEKNNSRIKLSLKSLVNKGILVQTRGTGASGSFKLS [S10M] | -0.175 ± 0.034
VSKLITEALIVSQERVGMSLVALKKALAAAGYDVEKNNSRIKLSLKSLVNKGILVQTRGTGASGSFKLS [S10I] | -0.316 ± 0.038
VSKLITEALCVSQERVGMSLVALKKALAAAGYDVEKNNSRIKLSLKSLVNKGILVQTRGTGASGSFKLS [S10C] | -0.43 ± 0.087
VSKLITEALKVSQERVGMSLVALKKALAAAGYDVEKNNSRIKLSLKSLVNKGILVQTRGTGASGSFKLS [S10K] | -0.17 ± 0.062
VSKLITEALHVSQERVGMSLVALKKALAAAGYDVEKNNSRIKLSLKSLVNKGILVQTRGTGASGSFKLS [S10H] | -0.275 ± 0.14
VSKLITEALNVSQERVGMSLVALKKALAAAGYDVEKNNSRIKLSLKSLVNKGILVQTRGTGASGSFKLS [S10N] | -0.024 ± 0.053
VSKLITEALFVSQERVGMSLVALKKALAAAGYDVEKNNSRIKLSLKSLVNKGILVQTRGTGASGSFKLS [S10F] | -0.655 ± 0.034
VSKLITEALTVSQERVGMSLVALKKALAAAGYDVEKNNSRIKLSLKSLVNKGILVQTRGTGASGSFKLS [S10T] | 0.016 ± 0.064
VSKLITEALEVSQERVGMSLVALKKALAAAGYDVEKNNSRIKLSLKSLVNKGILVQTRGTGASGSFKLS [S10E] | -0.41 ± 0.26
VSKLITEALQVSQERVGMSLVALKKALAAAGYDVEKNNSRIKLSLKSLVNKGILVQTRGTGASGSFKLS [S10Q] | -0.165 ± 0.12
VSKLITEALRVSQERVGMSLVALKKALAAAGYDVEKNNSRIKLSLKSLVNKGILVQTRGTGASGSFKLS [S10R] | -0.129 ± 0.084
VSKLITEALGVSQERVGMSLVALKKALAAAGYDVEKNNSRIKLSLKSLVNKGILVQTRGTGASGSFKLS [S10G] | 0.027 ± 0.1

Variant | abundance fitness
VSKLITEALPVSQERVGMSLVALKKALAAAGYDVEKNNSRIKLSLKSLVNKGILVQTRGTGASGSFKLS [S10P] | -0.835 ± 0.18
VSKLITEFLSVSQERVGMSLVALKKALAAAGYDVEKNNSRIKLSLKSLVNKGILVQTRGTGASGSFKLS [A8F] | -0.217 ± 0.029
VSKLITELLSVSQERVGMSLVALKKALAAAGYDVEKNNSRIKLSLKSLVNKGILVQTRGTGASGSFKLS [A8L] | -0.275 ± 0.027
VSKLITERLSVSQERVGMSLVALKKALAAAGYDVEKNNSRIKLSLKSLVNKGILVQTRGTGASGSFKLS [A8R] | -0.335 ± 0.056
VSKLITEGLSVSQERVGMSLVALKKALAAAGYDVEKNNSRIKLSLKSLVNKGILVQTRGTGASGSFKLS [A8G] | -0.522 ± 0.053
VSKLITEQLSVSQERVGMSLVALKKALAAAGYDVEKNNSRIKLSLKSLVNKGILVQTRGTGASGSFKLS [A8Q] | -0.584 ± 0.13
VSKLITEILSVSQERVGMSLVALKKALAAAGYDVEKNNSRIKLSLKSLVNKGILVQTRGTGASGSFKLS [A8I] | -0.032 ± 0.04
VSKLITETLSVSQERVGMSLVALKKALAAAGYDVEKNNSRIKLSLKSLVNKGILVQTRGTGASGSFKLS [A8T] | -0.447 ± 0.14
VSKLITEKLSVSQERVGMSLVALKKALAAAGYDVEKNNSRIKLSLKSLVNKGILVQTRGTGASGSFKLS [A8K] | -0.411 ± 0.076
VSKLITECLSVSQERVGMSLVALKKALAAAGYDVEKNNSRIKLSLKSLVNKGILVQTRGTGASGSFKLS [A8C] | -0.137 ± 0.056
VSKLITENLSVSQERVGMSLVALKKALAAAGYDVEKNNSRIKLSLKSLVNKGILVQTRGTGASGSFKLS [A8N] | -0.531 ± 0.078
VSKLITEYLSVSQERVGMSLVALKKALAAAGYDVEKNNSRIKLSLKSLVNKGILVQTRGTGASGSFKLS [A8Y] | -0.345 ± 0.043
VSKLITEDLSVSQERVGMSLVALKKALAAAGYDVEKNNSRIKLSLKSLVNKGILVQTRGTGASGSFKLS [A8D] | -1.13 ± 0.14
VSKLITEHLSVSQERVGMSLVALKKALAAAGYDVEKNNSRIKLSLKSLVNKGILVQTRGTGASGSFKLS [A8H] | -0.324 ± 0.11
VSKLITEMLSVSQERVGMSLVALKKALAAAGYDVEKNNSRIKLSLKSLVNKGILVQTRGTGASGSFKLS [A8M] | -0.163 ± 0.038
VSKLITESLSVSQERVGMSLVALKKALAAAGYDVEKNNSRIKLSLKSLVNKGILVQTRGTGASGSFKLS [A8S] | -0.42 ± 0.055
VSKLITEPLSVSQERVGMSLVALKKALAAAGYDVEKNNSRIKLSLKSLVNKGILVQTRGTGASGSFKLS [A8P] | -1.06 ± 0.22
VSKLITEWLSVSQERVGMSLVALKKALAAAGYDVEKNNSRIKLSLKSLVNKGILVQTRGTGASGSFKLS [A8W] | -0.026 ± 0.05
VSKLITEELSVSQERVGMSLVALKKALAAAGYDVEKNNSRIKLSLKSLVNKGILVQTRGTGASGSFKLS [A8E] | -0.719 ± 0.13
